These results are taken from patent publication US20230135471A1, “UBIQUITIN VARIANTS WITH IMPROVED AFFINITY FOR 53BP1” (Integrated DNA Technologies, Inc., priority 2021, published 2023).

In this assay the target is 53BP1 fragment (a.a. 1221-1718) fused to an adenylate cyclase fragment (two-hybrid) (UniProt Q12888). Description: cell-based or functional assay.
The substance “i53 + H68M two-hybrid fusion (designed binder)” returned an Experiment 1 Average Enrichment of 2.28 log2, an Experiment 1 Rep 1 Enrichment of 2.53 log2, an Experiment 1 Rep 2 Enrichment of 2.04 log2 and an Experiment 2 Average Enrichment of 1.28 log2. Also, the Experiment 2 Rep 1 Enrichment amounted to 0.99 log2, the Experiment 2 Rep 2 Enrichment turned out to be 1.58 log2, the Percent GFP Positive Rep 1 is 28.6% and the Percent GFP Positive Rep 2 stood at 23.5%. This substance came in with a Percent GFP Positive Rep 3 of 28.3%.

The substance “i53 + H68Q two-hybrid fusion (designed binder)” yielded an Experiment 1 Average Enrichment of 0.07 log2, an Experiment 1 Rep 1 Enrichment of 0.44 log2, an Experiment 1 Rep 2 Enrichment of -0.3 log2 and an Experiment 2 Average Enrichment of -0.5 log2. In addition, the Experiment 2 Rep 1 Enrichment was -0.62 log2 and the Experiment 2 Rep 2 Enrichment was -0.38 log2.

In turn, “i53 + I13F two-hybrid fusion (designed binder)” showed an Experiment 1 Average Enrichment of 0.53 log2, an Experiment 1 Rep 1 Enrichment of 1.04 log2, an Experiment 1 Rep 2 Enrichment of 0.03 log2 and an Experiment 2 Average Enrichment of -0.09 log2. The Experiment 2 Rep 1 Enrichment is -0.26 log2 and the Experiment 2 Rep 2 Enrichment came to 0.07 log2.

As to “i53 + I13H two-hybrid fusion (designed binder)”, the Experiment 1 Average Enrichment was determined as 0.5 log2, the Experiment 1 Rep 1 Enrichment was -0.27 log2, the Experiment 1 Rep 2 Enrichment turned out to be 1.28 log2 and the Experiment 2 Average Enrichment is -1.6 log2. Besides, the Experiment 2 Rep 1 Enrichment is -2.48 log2 and the Experiment 2 Rep 2 Enrichment is -0.71 log2.

“i53 + I13P two-hybrid fusion (designed binder)” displayed an Experiment 1 Average Enrichment of 0.58 log2, an Experiment 1 Rep 1 Enrichment of 2.15 log2, an Experiment 1 Rep 2 Enrichment of -0.99 log2 and an Experiment 2 Average Enrichment of -4.23 log2. Besides, the Experiment 2 Rep 1 Enrichment was -3.84 log2 and the Experiment 2 Rep 2 Enrichment is -4.62 log2.

Turning to “i53 + I61L two-hybrid fusion (designed binder)”, the Experiment 1 Average Enrichment came to 1.06 log2, the Experiment 1 Rep 1 Enrichment turned out to be 1.1 log2, the Experiment 1 Rep 2 Enrichment was found to be 1.02 log2 and the Experiment 2 Average Enrichment turned out to be 0.67 log2. The same substance showed an Experiment 2 Rep 1 Enrichment of 0.75 log2, an Experiment 2 Rep 2 Enrichment of 0.59 log2, a Percent GFP Positive Rep 1 of 15.9% and a Percent GFP Positive Rep 2 of 17.6%. The substance also had a Percent GFP Positive Rep 3 of 17.2%.

For the substance “i53 + K29H two-hybrid fusion (designed binder)”, the Experiment 1 Average Enrichment amounted to 0.17 log2, the Experiment 1 Rep 1 Enrichment worked out at 0.02 log2, the Experiment 1 Rep 2 Enrichment stood at 0.32 log2 and the Experiment 2 Average Enrichment is -2.73 log2. The same substance yielded an Experiment 2 Rep 1 Enrichment of -3.26 log2 and an Experiment 2 Rep 2 Enrichment of -2.2 log2.

Substance “i53 + K29L two-hybrid fusion (designed binder)” displayed an Experiment 1 Average Enrichment of 0.11 log2, an Experiment 1 Rep 1 Enrichment of 0.15 log2, an Experiment 1 Rep 2 Enrichment of 0.07 log2 and an Experiment 2 Average Enrichment of 0.26 log2. Also, the Experiment 2 Rep 1 Enrichment is 0.21 log2 and the Experiment 2 Rep 2 Enrichment is 0.3 log2.

Substance “i53 + K29M two-hybrid fusion (designed binder)” returned an Experiment 1 Average Enrichment of 1.6 log2, an Experiment 1 Rep 1 Enrichment of 1.72 log2, an Experiment 1 Rep 2 Enrichment of 1.48 log2 and an Experiment 2 Average Enrichment of 0.9 log2. Moreover, the Experiment 2 Rep 1 Enrichment amounted to 1.23 log2, the Experiment 2 Rep 2 Enrichment came to 0.57 log2, the Percent GFP Positive Rep 1 stood at 23.9% and the Percent GFP Positive Rep 2 amounted to 16.5%. This substance also registered a Percent GFP Positive Rep 3 of 17.8%.

As to “i53 + K29Q two-hybrid fusion (designed binder)”, the Experiment 1 Average Enrichment was found to be 0.05 log2, the Experiment 1 Rep 1 Enrichment is -0.21 log2, the Experiment 1 Rep 2 Enrichment worked out at 0.31 log2 and the Experiment 2 Average Enrichment was -0.04 log2. Further, the Experiment 2 Rep 1 Enrichment was -0.26 log2 and the Experiment 2 Rep 2 Enrichment is 0.17 log2.

“i53 + K29R two-hybrid fusion (designed binder)” had an Experiment 1 Average Enrichment of -0.01 log2, an Experiment 1 Rep 1 Enrichment of -0.07 log2, an Experiment 1 Rep 2 Enrichment of 0.05 log2 and an Experiment 2 Average Enrichment of 0.28 log2. This substance also returned an Experiment 2 Rep 1 Enrichment of 0.45 log2 and an Experiment 2 Rep 2 Enrichment of 0.1 log2.

In turn, “i53 + K33C two-hybrid fusion (designed binder)” gave an Experiment 1 Average Enrichment of 1.96 log2, an Experiment 1 Rep 1 Enrichment of 2.85 log2, an Experiment 1 Rep 2 Enrichment of 1.07 log2 and an Experiment 2 Average Enrichment of 0.77 log2. This substance also had an Experiment 2 Rep 1 Enrichment of 0.55 log2 and an Experiment 2 Rep 2 Enrichment of 0.99 log2.

Consider “i53 + K33E two-hybrid fusion (designed binder)”, for which the Experiment 1 Average Enrichment came out at 2.71 log2, the Experiment 1 Rep 1 Enrichment came out at 2.38 log2, the Experiment 1 Rep 2 Enrichment came to 3.03 log2 and the Experiment 2 Average Enrichment turned out to be 1.27 log2. Besides, the Experiment 2 Rep 1 Enrichment was 1.48 log2 and the Experiment 2 Rep 2 Enrichment was found to be 1.05 log2.

For the substance “i53 + K33F two-hybrid fusion (designed binder)”, the Experiment 1 Average Enrichment turned out to be 1.77 log2, the Experiment 1 Rep 1 Enrichment was 1.91 log2, the Experiment 1 Rep 2 Enrichment was 1.62 log2 and the Experiment 2 Average Enrichment worked out at 1.02 log2. In addition, the Experiment 2 Rep 1 Enrichment was 1.16 log2 and the Experiment 2 Rep 2 Enrichment worked out at 0.87 log2.

As to “i53 + K33I two-hybrid fusion (designed binder)”, the Experiment 1 Average Enrichment amounted to 2.03 log2, the Experiment 1 Rep 1 Enrichment was 1.91 log2, the Experiment 1 Rep 2 Enrichment worked out at 2.14 log2 and the Experiment 2 Average Enrichment is 0.91 log2. Further, the Experiment 2 Rep 1 Enrichment stood at 1.32 log2 and the Experiment 2 Rep 2 Enrichment came out at 0.5 log2.

“i53 + K33L two-hybrid fusion (designed binder)”: the Experiment 1 Average Enrichment was determined as 2.53 log2, the Experiment 1 Rep 1 Enrichment was found to be 2.4 log2, the Experiment 1 Rep 2 Enrichment amounted to 2.65 log2 and the Experiment 2 Average Enrichment is 1.6 log2. This substance also gave an Experiment 2 Rep 1 Enrichment of 1.67 log2 and an Experiment 2 Rep 2 Enrichment of 1.53 log2.

For the substance “i53 + K33M two-hybrid fusion (designed binder)”, the Experiment 1 Average Enrichment is 2.34 log2, the Experiment 1 Rep 1 Enrichment is 2.3 log2, the Experiment 1 Rep 2 Enrichment is 2.37 log2 and the Experiment 2 Average Enrichment turned out to be 1.06 log2. This substance showed an Experiment 2 Rep 1 Enrichment of 1.51 log2 and an Experiment 2 Rep 2 Enrichment of 0.61 log2.

Substance “i53 + K33N two-hybrid fusion (designed binder)” came in with an Experiment 1 Average Enrichment of 0.29 log2, an Experiment 1 Rep 1 Enrichment of 0.48 log2, an Experiment 1 Rep 2 Enrichment of 0.1 log2 and an Experiment 2 Average Enrichment of 0.24 log2. This substance displayed an Experiment 2 Rep 1 Enrichment of 0.06 log2 and an Experiment 2 Rep 2 Enrichment of 0.41 log2.

“i53 + K33Q two-hybrid fusion (designed binder)” displayed an Experiment 1 Average Enrichment of 2.9 log2, an Experiment 1 Rep 1 Enrichment of 3.03 log2, an Experiment 1 Rep 2 Enrichment of 2.77 log2 and an Experiment 2 Average Enrichment of 1.48 log2. The substance also showed an Experiment 2 Rep 1 Enrichment of 1.96 log2 and an Experiment 2 Rep 2 Enrichment of 0.99 log2.

Substance “i53 + K33R two-hybrid fusion (designed binder)” gave an Experiment 1 Average Enrichment of 0.42 log2, an Experiment 1 Rep 1 Enrichment of 0.73 log2, an Experiment 1 Rep 2 Enrichment of 0.1 log2 and an Experiment 2 Average Enrichment of 0.37 log2. Moreover, the Experiment 2 Rep 1 Enrichment stood at 0.64 log2 and the Experiment 2 Rep 2 Enrichment stood at 0.1 log2.

The substance “i53 + K33T two-hybrid fusion (designed binder)” returned an Experiment 1 Average Enrichment of 1.77 log2, an Experiment 1 Rep 1 Enrichment of 1.9 log2, an Experiment 1 Rep 2 Enrichment of 1.63 log2 and an Experiment 2 Average Enrichment of 1.41 log2. The substance further returned an Experiment 2 Rep 1 Enrichment of 1.48 log2 and an Experiment 2 Rep 2 Enrichment of 1.34 log2.

For “i53 + K33V two-hybrid fusion (designed binder)”, the Experiment 1 Average Enrichment amounted to 2.45 log2, the Experiment 1 Rep 1 Enrichment came out at 2.71 log2, the Experiment 1 Rep 2 Enrichment was 2.19 log2 and the Experiment 2 Average Enrichment stood at 1.75 log2. Moreover, the Experiment 2 Rep 1 Enrichment was found to be 2.03 log2 and the Experiment 2 Rep 2 Enrichment was determined as 1.46 log2.

“i53 + K33W two-hybrid fusion (designed binder)” came in with an Experiment 1 Average Enrichment of -1.01 log2, an Experiment 1 Rep 1 Enrichment of -2.04 log2, an Experiment 1 Rep 2 Enrichment of 0.01 log2 and an Experiment 2 Average Enrichment of 0.15 log2. This substance also showed an Experiment 2 Rep 1 Enrichment of 0.35 log2 and an Experiment 2 Rep 2 Enrichment of -0.06 log2.

In the case of “i53 + K33Y two-hybrid fusion (designed binder)”, the Experiment 1 Average Enrichment stood at 1.02 log2, the Experiment 1 Rep 1 Enrichment stood at 0.63 log2, the Experiment 1 Rep 2 Enrichment is 1.41 log2 and the Experiment 2 Average Enrichment came to 0.98 log2. This substance showed an Experiment 2 Rep 1 Enrichment of 1.03 log2 and an Experiment 2 Rep 2 Enrichment of 0.94 log2.

“i53 + K48I two-hybrid fusion (designed binder)” had an Experiment 1 Average Enrichment of 0.64 log2, an Experiment 1 Rep 1 Enrichment of 0.5 log2, an Experiment 1 Rep 2 Enrichment of 0.77 log2 and an Experiment 2 Average Enrichment of 0.42 log2. Further, the Experiment 2 Rep 1 Enrichment came to 0.35 log2 and the Experiment 2 Rep 2 Enrichment is 0.49 log2.

As for “i53 + K48L two-hybrid fusion (designed binder)”, the Experiment 1 Average Enrichment was determined as 0.05 log2, the Experiment 1 Rep 1 Enrichment was found to be 0.05 log2, the Experiment 1 Rep 2 Enrichment worked out at 0.04 log2 and the Experiment 2 Average Enrichment stood at 0.2 log2. This substance also displayed an Experiment 2 Rep 1 Enrichment of 0.28 log2 and an Experiment 2 Rep 2 Enrichment of 0.12 log2.

Substance “i53 + K48M two-hybrid fusion (designed binder)” registered an Experiment 1 Average Enrichment of 0.91 log2, an Experiment 1 Rep 1 Enrichment of 0.87 log2, an Experiment 1 Rep 2 Enrichment of 0.94 log2 and an Experiment 2 Average Enrichment of 0.67 log2. The substance further registered an Experiment 2 Rep 1 Enrichment of 0.63 log2 and an Experiment 2 Rep 2 Enrichment of 0.7 log2.
